Experimental findings from publication PMC4841919 (Neurobiology of aging, 2016) are described below.

Usually stoichiometry N stands for a count of units in the complex or per binding partner.

In series [1] the target is striatal-enriched tyrosine phosphatase STEP61 (endogenous, rat brain) (rat (endogenous in Sprague-Dawley rat brain)). Kind of series: non-reducing SDS-PAGE and immunoblot.
Series [2] concerns the molecule itself. Kind of series: non-reducing SDS-PAGE and immunoblot. Background: A western blot detects proteins with antibodies after separation by electrophoresis.

For the molecule “striatal-enriched tyrosine phosphatase STEP61 (endogenous, rat brain) (enzyme)”, in series [1], the dimer band after N-acetyl cysteine, percent of untreated aged control, cortex was 59.4 % of control; the fold increase of the dimer band in aged rats, cortex was 6.2 fold; the fold increase of the dimer band in aged rats, hippocampus was 5.9 fold; the stoichiometry N was 2.

B1: V5- and myc-tagged STEP61 (wild type) (enzyme, UniProt P54830-1 1-541, looked up)
chain: MCCSERLLGLPQPVEMEAPDEAEGLPSKQKEMPPPPPPSPPSEPAQKLPPQGAGSHSLTVRSSLCLFAASQFLLACGVLWLSGHGHSWLQNTTDLISSSLTVLNHLGPVAWLGSGTWGIPSLLLVSLTVSLVIVTTLVWHLLKAPPEPPAPLPPEDRRQSVSRQPSFTYSEWMEEKVEDDFLDLDAVPETPVFDCVMDIKPETDPASLTVKSMGLQERRGSNVSLTLDMCTPGCNEEGFGYLVSPREESAHEYLLSASRVLRAEELHEKALDPFLLQAEFFEIPMNFVDPKEYDIPGLVRKNRYKTILPNPHSRVRLTSPDPEDPLSSYINANYIRGYSGEEKVYIATQGPIVSTVADFWRMVWQERTPIIVMITNIEEMNEKCTEYWPEEQVVHDGVEITVQKVIHTEDYRLRLISLRRGTEERSLKHYWFTSWPDQKTPDRAPPLLHLVREVEEAAQQEGPHCSPIIVHCSAGIGRTGCFIATSICCQQLRREGVVDILKTTCQLRQDRGGMIQTCEQYQFVHHAMSLYEKQLSLQSSE
On to B1, for which, in series [2], the “stoichiometry N” value was no less than 2.
